Assay results reported in patent US20030119733A1, “Compositions and methods for inhibiting hepatocyte invasion by malarial sporozoites” (New York University, priority 1992, published 2003).

Tests used:
[1] = Solid phase binding assay, analogues of sulfatide and cholesterol-3-sulfate; conditions: dried into microtiter wells
Description: Solid phase binding assays: Thirty μl of lipids or steroids dissolved in methanol (20-250 μg/ml) were dried into wells of microassay plates (Cat.# 3911—Falcon—Oxnard, Calif.). The plates were then blocked with 1% BSA/PBS pH 7.4 (BSA/PBS) for 30 minutes. Wells were incubated with recombinant protein (or with parasite extract) in PBS/BSA for 1 hour, washed 3 times with BSA/PBS, incubated for 1 hour with monoclonal antibodies 2F2 or 2A10 in BSA/PBS, washed 3 times, and then incubated with (10^5 cpm/well) ^125I protein A (Amersham Corp., Arlington Hts., Ill.). In the case of the P. berghei CS protein, wells were incubated with ^125I labelled mAb 3D11. Wells were washed again and the bound radioactive protein was counted in an LKB gamma-counter (model #1260, Pharmacia, Inc., Gaithersburg, Md.). For inhibition assays, the recombinant proteins were mixed with dilutions of the various polymers in BSA/PBS, the mixture was loaded into the wells of the microtiter plates, and the binding assay performed as above. See also, Roberts, et al. J. Biol. Chem. 260:9405-9411, 1985.
1.4 nmol of sulfatide (open squares), cholesterol-3-sulfate (closed triangles), galactocerebroside I (closed circles), galactocerebroside II (open circles) and cholesterol (open triangles) were evaporated into microtiter wells and then incubated with serial dilutions of Vivax-2. […]

[2] = Clearance studies of 125I-labeled proteins; assay type: in vivo, mouse; conditions: monomeric fraction of CS27IVC, or Falc-1; i.v., between 2 and 15 minutes
Description: Clearance Studies: Mice were anesthetized with ether, and injected with 10^5 cpm of ^125I-labeled CS27IVC or Falc-1 via the periorbital sinus. At two, five and fifteen minutes after injection, the mice were exsanguinated, the organs removed, rinsed in TBS, blotted dry on filter paper, and counted for radioactivity. To estimate the amounts of blood contaminating the various organs, we repeated the same procedure in mice injected with 100 μl (1.5×10^5 cpm) of ^51Cr-labeled RBC. The mean volumes of blood in the liver, spleen and kidney of the exsanguinated animals were 75, 24, and 35 μl respectively. In all other organs, the amount of blood was negligible, i.e., less than 15 μl. The percent of injected dose of CS which was retained in the various organs was calculated as described as follows: [formula]
Radiolabeled Falc-1 (FIG. 30B), and the aggregated (FIG. 30C) and monomeric (FIG. 30A) fractions of radiolabeled CS27IVC proteins were injected intravenously into the retroorbital sinuses of mice. The animals were sacrificed 2, 5 and 15 minutes later, and the amounts of CS in the blood and in various organs were measured. Additionally, the radioactivity associated with the various organs was calculated. […]

Molecule | binding to analogues (gangliosides, galactocerebrosides I and II, cholesterol, other steroids) [1] | injected counts recovered in the blood and in various organs [2]
Falciparum-2: fragment of P. falciparum CS protein with repeats and Region II+ (residues 43-391) (protein) AGTNLYNELEMNYYGKQENWYSLKKNSRSLGENDDGNNNNGDNGREGKDEDKRDGNNEDNEKLRKPKHKKLKQPGDGNPDPNANPNVDPNANPNVDPNANPNVDPNANPNANPNANPNANPNANPNANPNANPNANPNANPNANPNANPNANPNANPNANPNANPNVDPNANPNANPNANPNANPNANPNANPNANPNANPNANPNANPNANPNANPNANPNANPNANPNANPNANPNANPNANPNKNNQGNGQGHNMPNDPNRNVDENANANNAVKNNNNEEPSDKHIEQYLKKIKNSISTEWSPCSVTCGNGIQVRIKPGSANKPKDELDYENDIEKKICKMEKCSS | not | 
Falciparum-1: Same as Falciparum-2 minus most of Region II+ (P. falciparum residues 43-348) (protein) AGTNLYNELEMNYYGKQENWYSLKKNSRSLGENDDGNNNNGDNGREGKDEDKRDGNNEDNEKLRKPKHKKLKQPGDGNPDPNANPNVDPNANPNVDPNANPNVDPNANPNANPNANPNANPNANPNANPNANPNANPNANPNANPNANPNANPNANPNANPNANPNVDPNANPNANPNANPNANPNANPNANPNANPNANPNANPNANPNANPNANPNANPNANPNANPNANPNANPNANPNANPNKNNQGNGQGHNMPNDPNRNVDENANANNAVKNNNNEEPSDKHIEQYLKKIKNSISTEWSP |  | about 40%
